According to patent US20230322924A1 (Janssen / Centocor, published 2023):
Where a chain is given by its changes, count along the chain named. Names and notes keep the numbering of the source.

B1: C33B101 (antibody, V domains shown)
VH: QLQLQESGPGLVKPSETLSLTCTVSGGSISSSSYYWGWIRQPPGKGLDWIGSINYSGSTYYNPSLKSRVTISVDTSKIQFSLKLRSVTAADTAVYYCARLDGYESPFDYWGQGTLVTVSS
VL: DIQMTQSPSSVSASVGDRVTITCRASQGISSWLAWYQQKPGKAPKLLIYAASSLQSGVPSRFSGSGSGTDFTLTISSLQPEDFATYYCQQANSFPFTFGPGTKVDIK
notes: huIgG1 F405L; 260 is used; also called C33F106; C33H69/C4LL152
B2: C33B72 (antibody, IgG1, V domains shown)
VH: QVQLVESGGGVVQPGRSLRLSCAASGFTFSSYGMHWVRQAPGKGLEWVVVISYDGSNKYYADSVKGRFTISRDNSKNTLYLQMNSLRAEDTAVYYCAKDFRDFDWLPPDSTSYHGMDVWGQGTTVTVSS
VL: SYELTQPPSVSVSPGQTASITCSGDKLGDKYACWYQQKPGQSPVVVIYQDRKRPSGIPERFSGSNFGNTATLTISGTQAMDEADYYCQAWDSSTVVFGGGTKLTVL
notes: huIgG1 F405L; also called C33F77; C33H65/C33L47
B3: C33B82 (antibody, IgG1, V domains shown)
VH: B2 VH with V49A, Y80F, D102Y, T111S, H114Y
VL: B2 VL with K26E, D29N, I47V
notes: huIgG1 F405L; also called C33F87; C33H78/C33L57
B4: C33B55 (antibody, IgG1, V domains shown)
VH: B2 VH with A40S, V49A, Y60C, N77S, D102S, F103L, H114D
VL: B2 VL with D25H, Q49K, R51S
notes: huIgG1 F405L; also called C33F60; C33H45/C33L11
B5: C33B73 (antibody, IgG1, V domains shown)
VH: B2 VH with A23V, V49A, D90G, D102S, T111A
VL: B2 VL with V45L, R51G, T69K, S92R, S93N
notes: huIgG1 F405L; also called C33F78; C33H66/C33L60
B6: C33B79 (antibody, IgG1, V domains shown)
VH: B2 VH with G26R, V49A, Y94H, D102S, T111A
VL: B2 VL with S13P, V45L, R51N, F66S, D91G, S92R, S93N
notes: huIgG1 F405L; also called C33F84; C33H74/C33L38
B7: C33B66 (antibody, IgG1, V domains shown)
VH: QVQLQESGPGLVKPSGTLSLTCAVSGGSISSSNWWSWVRQPPGRGLEWIGEIYHSGNTNNSPSLKSRVTISADKSKNQFSLKLSSVTAADTAVYFCARIIAVARYFDSWGQGTLVTVSS
VL: SYVLTQPPSVSVAPGQTARITCGGNNIGIKSVHWYQQKPGQAPVLVVYDDSDRPPGIPERFSGSNSGNTATLTITRVEAGDEADYYCQVWDSSSDHVVFGGGTKLTVL
notes: huIgG1 F405L; also called C33F71; C33H55/C33L42

Biological target: T1, Cyno CD33 full length, expressed on HEK293F cells (cynomolgus monkey)
T1 construct: HEK293F cells transduced with lentivirus containing full length cyno CD33 (Genbank XP_005590138.1); also called cyCD33
Assay: flow cytometry, HEK293F cells expressing cyno CD33
Protocol: (§1) OMNIRat antibodies identified via immunization, v-region cloned and subsequently expressed and purified were characterized further for binding to CD33 expressing cells and binding to recombinant antigens. The purified antibodies were assessed for binding to stably transfected HEK293F cells expressing human CD33 or cyno CD33 (generation described above) along with the parental HEK293F as negative control. Cells were harvested from tissue culture flasks using non-enzymatic dissociation buffer (Thermo Scientific). The flasks were rinsed twice with PBS and dissociation buffer was added to the flask, and the flask was incubated for 10 minutes at 37° C. until the cells became non-adherent. The cells were centrifuged at 300 g for 5 minutes and resuspended at 1.0×10⁶ cells/ml in staining buffer (Becton Dickinson; Franklin Lakes, NJ). 50,000 cells/well of each cell type was plated in 50 μl of staining buffer in round bottom plates (Becton Dickinson). […] 100 μl staining buffer was added to all wells of each plate, the plates were spun at 300 g for 5 min, the buffer was removed, 200 μl staining buffer was added to all wells of each plate, the plates were spun at 300 g for 5 min, and the buffer was removed. 50 μl of 2 μg/ml of Goat-anti-human Fc AF647 secondary antibody (Jackson Immunoresearch; West Grove, PA) was added to all wells of the plates, and the plates were incubated for 30 min at 4° C. 100 μl staining buffer was added to all wells of the plates, the plates were spun at 300 g for 5 min, and the buffer was removed. 200 μl running buffer (running buffer is Staining buffer, 1 mM EDTA, 0.1% Pluronic Acid) was added to all wells of the plates, the plates were spun at 300 g for 5 min, and the buffer was removed. 30 μl running buffer containing Sytox Green live/dead dye (ThermoFisher) was added to all wells with cells and the plates were read on an iQue IntelliCyt flow cytometer. Cells were gated on forward vs. side scatter to eliminate debris, then on singlets and then on live cells which excluded the Sytox stain. Antibody binding was assessed by the mean fluorescence intensity in the AF647 channel.

| Binder | MFI at 0 nM mAb (background) | MFI at 0.6 nM mAb | MFI at 6 nM mAb | MFI at 60 nM mAb |
| --- | --- | --- | --- | --- |
| B1 | 79.7 MFI | 18000 MFI | 46100 MFI | 48000 MFI |
| B2 | 90.8 MFI | 3890 MFI | 14000 MFI | 19400 MFI |
| B3 | 84.2 MFI | 1540 MFI | 6620 MFI | 14300 MFI |
| B4 | 69.4 MFI | 2430 MFI | 9990 MFI | 16000 MFI |
| B5 | 72.5 MFI | 796 MFI | 6990 MFI | 14800 MFI |
| B6 | 63.6 MFI | 1080 MFI | 6430 MFI | 15500 MFI |
| B7 | 78 MFI | 42200 MFI | 49100 MFI | 48900 MFI |

Biological target: T2, Human CD33 full length, expressed on HEK293F cells (human, UniProt P20138 18-364)
T2 construct: HEK293F cells transduced with lentivirus containing full length human CD33; also called huCD33
T2 sequence (P20138 18-364 limits assumed): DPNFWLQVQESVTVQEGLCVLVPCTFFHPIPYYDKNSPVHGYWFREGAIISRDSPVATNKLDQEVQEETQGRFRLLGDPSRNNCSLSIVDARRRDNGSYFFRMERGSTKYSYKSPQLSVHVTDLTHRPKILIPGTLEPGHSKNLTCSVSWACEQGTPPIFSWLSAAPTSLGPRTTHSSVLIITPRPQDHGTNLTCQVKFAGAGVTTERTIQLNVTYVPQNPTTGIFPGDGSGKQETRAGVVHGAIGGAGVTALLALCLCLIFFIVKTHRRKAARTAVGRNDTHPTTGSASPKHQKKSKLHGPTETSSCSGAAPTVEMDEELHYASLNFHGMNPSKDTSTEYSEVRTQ
Assay: flow cytometry, HEK293F cells expressing human CD33
Protocol: as §1

| Binder | MFI at 0 nM mAb (background) | MFI at 0.6 nM mAb | MFI at 6 nM mAb | MFI at 60 nM mAb |
| --- | --- | --- | --- | --- |
| B1 | 70.1 MFI | 35500 MFI | 205000 MFI | 269000 MFI |
| B2 | 93.3 MFI | 12500 MFI | 105000 MFI | 328000 MFI |
| B3 | 73.4 MFI | 5030 MFI | 41300 MFI | 189000 MFI |
| B4 | 105 MFI | 7630 MFI | 59200 MFI | 188000 MFI |
| B5 | 94 MFI | 4030 MFI | 33400 MFI | 201000 MFI |
| B6 | 77.8 MFI | 4990 MFI | 41900 MFI | 237000 MFI |
| B7 | 130 MFI | 56600 MFI | 313000 MFI | 445000 MFI |

Biological target: T3, Cyno CD33 ECD-HSA (cynomolgus monkey)
T3 construct: Cyno CD33 extracellular domain fused to monomeric human serum albumin and a six-histidine tag; also called C33W1
Assay: ProteOn SPR, mAb captured by anti-human Fc, 1:1 Langmuir fit
Protocol: (§2) The panel of mAbs was then further characterized for full affinity analysis as well as epitope binning. The binding of anti-CD33 mAbs to recombinant human CD33 ECD-HSA (C33W2) and cyno CD33 ECD-HSA (C33W1) was measured by ProteOn SPR (Bio-Rad). […] Different mAbs were captured on the anti-human Fc IgG surface at 0.25 or 0.5 μg/ml (160-300 RU) in vertical ligand orientation, with the 6th ligand channel as no ligand surface control. Human and cyno CD33-HSA proteins at 0.3 μM concentration in 3-fold dilution series of 5 concentrations flew in as analyte to bind to captured mAbs in the horizontal orientation. A buffer sample was also injected in the 6th channel to monitor the dissociation of captured mAb and baseline stability. […] The raw biding data were processed by double referencing after subtracting the response data from: 1) the inter-spot to correct for the non-specific interactions between the Ag and the empty chip surface; 2) the buffer channel to correct for baseline drifting due to the dissociation of captured mAb surface over time. The processed data at all antigen concentrations for each mAb were globally fit to a 1:1 simple Langmuir binding model to extract estimates of the kinetic (kₒₙ, koff) and affinity (Kd) constants.

| Binder | Kd | koff | kon |
| --- | --- | --- | --- |
| B1 | 1.2 nM | 0.000269 s⁻¹ | 225000 M⁻¹ s⁻¹ |
| B2 | 0.587 nM | 0.00054 s⁻¹ | 919000 M⁻¹ s⁻¹ |
| B3 | 1.38 nM | 0.000751 s⁻¹ | 545000 M⁻¹ s⁻¹ |
| B4 | 0.0723 nM | 8.37e-05 s⁻¹ | 1.16e+06 M⁻¹ s⁻¹ |
| B5 | 0.846 nM | 0.000508 s⁻¹ | 600000 M⁻¹ s⁻¹ |
| B6 | 4.01 nM | 0.0022 s⁻¹ | 548000 M⁻¹ s⁻¹ |
| B7 | 0.217 nM | 0.000266 s⁻¹ | 1.22e+06 M⁻¹ s⁻¹ |

Biological target: Human CD33 ECD-HSA (human)
Sequence (chain, as listed by the source): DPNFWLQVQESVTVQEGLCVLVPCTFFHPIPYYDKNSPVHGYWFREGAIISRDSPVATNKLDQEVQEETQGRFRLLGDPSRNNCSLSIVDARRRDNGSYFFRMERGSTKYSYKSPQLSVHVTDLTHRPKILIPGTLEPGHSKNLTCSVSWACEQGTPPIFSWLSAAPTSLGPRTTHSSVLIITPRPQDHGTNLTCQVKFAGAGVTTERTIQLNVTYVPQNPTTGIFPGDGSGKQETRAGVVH
Assay: as above
Protocol: as §2

| Binder | Kd | koff | kon |
| --- | --- | --- | --- |
| B1 | 6.64 nM | 0.00108 s⁻¹ | 162000 M⁻¹ s⁻¹ |
| B2 | 0.23 nM | 0.0002 s⁻¹ | 871000 M⁻¹ s⁻¹ |
| B3 | 0.61 nM | 0.00027 s⁻¹ | 445000 M⁻¹ s⁻¹ |
| B4 | 0.26 nM | 0.000253 s⁻¹ | 985000 M⁻¹ s⁻¹ |
| B5 | 0.1 nM | 5.59e-05 s⁻¹ | 559000 M⁻¹ s⁻¹ |
| B6 | 0.76 nM | 0.00039 s⁻¹ | 515000 M⁻¹ s⁻¹ |
| B7 | 52.9 nM | 0.00203 s⁻¹ | 38500 M⁻¹ s⁻¹ |

Biological target: Human CD33 ECD-HSA (human)
Assay: SPRi off-rate screen (IBIS MX96), mAb captured by anti-human Fc; column head prints KD
Protocol: (§3) To begin assessing the biophysical binding properties of the purified mAbs an off-rate screen was performed. 76 OMNIRat anti-CD33 mAbs were tested for binding to recombinant human CD33 ECD-HSA (C33W2) and cyno CD33 ECD-HSA (C33W1) proteins (Janssen production) and the off-rate was measured by IBIS MX96 SPRi array platform (Carterra; Newton, PA). […] The sensor chip was transferred to the Continuous Flow Microspotter (CFM) unit to capture each anti-CD33 mAb at 10 μg/ml for 10 minutes. Binding was measured on IBIS SPRi by single cycle kinetics without regeneration. […] The raw binding data (.trix file format) were referenced and aligned using SprintX software (Wasatch, Ver 1.9.3.2), then exported (.ibmx file format) to Scrubber software (Ver. 2.0) for 1:1 binding kinetic analyses (Wasatch, version 2.0.0.33) to extract the koff results.

| Binder | koff |
| --- | --- |
| B1 | 0.000398 s⁻¹ |
| B2 | 0.000284 s⁻¹ |
| B3 | 0.000341 s⁻¹ |
| B4 | 0.000215 s⁻¹ |
| B5 | 9.12e-05 s⁻¹ |
| B6 | 0.000328 s⁻¹ |
| B7 | 0.000859 s⁻¹ |

Biological target: T3, Cyno CD33 ECD-HSA
Assay: SPRi off-rate screen (IBIS MX96), mAb captured by anti-human Fc; column head prints Cyno CD33 binding KD
Protocol: as §3

| Binder | koff |
| --- | --- |
| B1 | 0.000106 s⁻¹ |
| B2 | 0.000763 s⁻¹ |
| B3 | 0.00067 s⁻¹ |
| B4 | 0.000116 s⁻¹ |
| B5 | 0.000408 s⁻¹ |
| B6 | 0.00682 s⁻¹ |
| B7 | 9.33e-05 s⁻¹ |
